In the assay the target is SARS-CoV-2 prefusion-stabilized S ectodomain trimer (SARS-CoV-2 | not stated) (UniProt P0DTC2).

Consider S2X35 mAb (IgG1) (antibody), for which the SARS-CoV-2 pseudovirus neutralization IC50; hinders ACE2 binding was found to be 0.5 µg/mL.

The values above are taken from paper PMC7494283.
